Data from US6409648, “Polynucleotides encoding TRF1 binding proteins” (The Regents of the University of California).

B3: Myc-Tin2 (Tin2 with a 13 aa c-Myc epitope at the N-terminus) (other, not shown: small tags and cut ends)
chain: MATPLVAGPAALRFAAAASWQVVRGRCVEHFPRVLEFLRSLRAVAPGLVRYRHHERLCMGLKAKVVVELILQGRPWAQVLKALNHHFPESGPIVRDPKATKQDLRKILEAQETFYQQVKQLSEAPVDLASKLQELEQEYGEPFLAAMEKLLFEYLCQLEKALPTPQAQQLQDVLSWMQPGVSITSSLAWRQYGVDMGWLLPECSVTDSVNLAEPMEQNPPQQQRLALHNPLPKAKPGTHLPQGPSSRTHPEPLAGRHFNLAPLGRRRVQSQWASTRGGHKERPTVMLFPFRNLGSPTQVISNPESKEEHAIYTADLAMGTRAPSNGKYKGPYQTLGGRALKENPVDLPATEQKE
notes: Made by in vitro translation (rabbit reticulocyte lysate, 35S-methionine) or expressed in HT1080 cells from a retrovirus

Columns and labels:
[1] = molecular target: T1, HA-Trf1 (Trf1 with a 10 aa hemagglutinin epitope at the N-terminus) (human, UniProt P54274 1-439); assay: EMSA with nuclear extract of HA-Trf1 expressing cells and telomeric DNA probe
T1 construct: In vitro translated (major 60 kD and minor about 40 kD products), or expressed in HT1080 cells
T1 sequence (looked up): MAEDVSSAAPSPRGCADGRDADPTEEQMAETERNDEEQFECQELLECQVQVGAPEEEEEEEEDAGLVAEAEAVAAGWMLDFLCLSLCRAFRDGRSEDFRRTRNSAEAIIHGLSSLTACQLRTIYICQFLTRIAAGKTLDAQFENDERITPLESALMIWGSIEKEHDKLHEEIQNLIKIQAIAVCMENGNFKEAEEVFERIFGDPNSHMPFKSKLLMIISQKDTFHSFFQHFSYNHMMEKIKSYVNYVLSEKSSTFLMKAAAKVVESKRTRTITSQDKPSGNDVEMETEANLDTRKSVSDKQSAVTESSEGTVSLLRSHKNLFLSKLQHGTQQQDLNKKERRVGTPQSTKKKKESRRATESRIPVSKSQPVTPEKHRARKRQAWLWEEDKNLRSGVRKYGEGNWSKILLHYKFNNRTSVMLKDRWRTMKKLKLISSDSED

[2] = molecular target: B3; assay: co-immunoprecipitation with anti-GST of in vitro translated radiolabeled protein, SDS-PAGE
[3] = molecular target: T2, HA-tagged hTERT protein (human telomerase catalytic subunit) (human, UniProt O14746 1-1132); assay: co-immunoprecipitation from cells
T2 construct: Transiently expressed in Myc-Tin2-expressing cells; not shown: HA tag
T2 sequence (O14746 whole entry): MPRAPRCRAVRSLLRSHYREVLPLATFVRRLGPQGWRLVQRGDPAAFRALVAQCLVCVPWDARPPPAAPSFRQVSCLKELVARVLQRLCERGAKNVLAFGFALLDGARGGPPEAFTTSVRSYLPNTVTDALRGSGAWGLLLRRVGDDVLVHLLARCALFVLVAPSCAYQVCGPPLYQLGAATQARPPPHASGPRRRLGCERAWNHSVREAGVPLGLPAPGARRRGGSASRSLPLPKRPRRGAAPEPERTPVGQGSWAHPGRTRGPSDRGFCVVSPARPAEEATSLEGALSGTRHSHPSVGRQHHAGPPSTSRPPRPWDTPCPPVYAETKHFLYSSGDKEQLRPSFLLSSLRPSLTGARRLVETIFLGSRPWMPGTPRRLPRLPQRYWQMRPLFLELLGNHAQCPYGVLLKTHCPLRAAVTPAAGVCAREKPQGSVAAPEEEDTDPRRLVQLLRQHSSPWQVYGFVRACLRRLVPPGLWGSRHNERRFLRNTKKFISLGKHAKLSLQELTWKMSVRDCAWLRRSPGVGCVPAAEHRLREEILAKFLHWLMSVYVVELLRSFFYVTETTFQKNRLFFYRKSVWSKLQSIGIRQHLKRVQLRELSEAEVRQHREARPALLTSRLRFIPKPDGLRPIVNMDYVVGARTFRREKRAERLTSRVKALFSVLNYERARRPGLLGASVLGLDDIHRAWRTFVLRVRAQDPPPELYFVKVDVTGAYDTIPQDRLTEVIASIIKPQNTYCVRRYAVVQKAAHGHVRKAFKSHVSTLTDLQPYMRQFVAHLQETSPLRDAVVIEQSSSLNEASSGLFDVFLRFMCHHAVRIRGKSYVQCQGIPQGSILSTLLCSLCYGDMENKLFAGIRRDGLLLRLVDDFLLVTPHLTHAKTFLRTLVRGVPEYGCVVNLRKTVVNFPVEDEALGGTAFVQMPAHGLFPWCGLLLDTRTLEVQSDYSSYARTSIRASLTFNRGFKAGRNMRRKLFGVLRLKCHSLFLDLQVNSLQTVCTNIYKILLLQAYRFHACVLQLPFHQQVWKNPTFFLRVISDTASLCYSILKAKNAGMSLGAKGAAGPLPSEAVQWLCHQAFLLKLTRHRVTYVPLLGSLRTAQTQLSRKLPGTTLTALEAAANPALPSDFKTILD

[4] = molecular target: T1, HA-Trf1 (Trf1 with a 10 aa …); assay: co-immunoprecipitation of mixed in vitro translation products, SDS-PAGE
[5] = molecular target: T3, Trf1 + Tin2 complex (human, UniProt P54274;Q9BSI4-2 P54274:1-439,Q9BSI4-2:1-354); assay: EMSA; all TT shifted to TT-AAX; nuclear extract slightly enhances; details: tags: 6his on both, baculovirus/Sf9; chain copies: 2 Trf1 + 2 Tin2 in TT-AA (stated as likely)
Method: (§1) Nuclear extracts were prepared as described (Dimri et al., 1994), and dialyzed against 20 mM HEPES, pH 7.9, 100 mM KCl, 0.5 mM DTT, 0.5 mM PMSF. [TTAGGG]_6 and $[TTAGGG]13$ in pBluescript were excised, labeled using Klenow or PCR and gel purified. EMSA was performed as described (Zhong et al., 1992) in 20 ul containing 0–20 ug GST or GST-fusion proteins, 6–8 ug nuclear extract protein or 5 ul in vitro translation reaction, using a 30 min incubation at room temperature and 5% PAGE run with 1× Tris-borate-EDTA buffer.
(§2) To determine the nature of TT-AAX, DNA complexes formed by purified proteins were examined. 6his-tagged Trf1 and Tin2 were produced and purified from baculovirus-infected cells. […] Moreover, 6his-Tin2, added in increasing amounts to 6his-Trf1 and probe, shifted all the TT to TT-AAX . Since 6his-Tin2 formed more TT-AAX than GST-Tin2, the GST moiety may reduce TT-AAX formation or stability. Nuclear extract had only a small effect on TT-AAX formation. […] Addition of 6his-Trf1 produced TT, and 6his-Tin2 shifted all the TT to TT-AAX. However, somewhat more TT-AAX was formed in the presence of nuclear extract than its absence. Thus, TT-AAX required only Trf1, Tin2 and telomeric DNA, but other nuclear proteins might enhance its formation or stability.

[6] = molecular target: Trf1 (HA-Trf1, in vitro translated) (human, UniProt P54274 P54274:1-439); assay: EMSA; specific protein-DNA complex TT
Method: as §1
This was true whether Tin2 was translated in vitro, purified from *E. coli* as a GST-fusion protein, or purified from baculovirus infected insect cells as a 6-histidine (6his)-tagged protein. […] In contrast, Trf1, whether translated in vitro or in nuclear extracts from HA-Trf1 overexpressing cells, formed a specific protein-DNA complex (Chong et al., 1995). Since Trf1 binds DNA as a homodimer (Bianchi et al., 1997), this complex was designated TT. To determine whether Tin2 interacts with this complex, WT or mutant GST-Tin2 proteins were added to nuclear extracts from HA-Trf1 expressing cells.

[7] = molecular target: T4, Trf1 (6his-Trf1) (human, UniProt P54274 P54274:1-439); assay: EMSA; single TT complex; probe not restated, taken as [TTAGGG]13; details: tags: 6his, baculovirus/Sf9; chain copies: 2 (homodimer, stated)
Method: as §1, §2

[8] = molecular target: T4, Trf1 (6his-Trf1); assay: EMSA; TT plus minor TT**, TT*** and small amount of TT-AAX; Trf1 alone induces probe-probe pairing; details: tags: 6his, baculovirus/Sf9; chain copies: 2 (homodimer, stated); label: 32P (6X-Tel); 5' biotin (Bi-6X-Tel)
Method: (§3) 6his-Trf1 (150 ng) and increasing amounts of 6his-Tin2 were incubated with a double stranded TTAGGG_6 probe, and protein-DNA complexes were analyzed by EMSA. Probes containing [TTAGGG]_6 and flanking sequences were synthesized by PCR. 6X-Tel was 178 bp, and labeled with ^32P (*). Bi-6X-Tel was 126 bp, biotinylated at a 5' end, and either labeled (*) or unlabeled. The 6X-Tel probe was incubated with labeled or unlabeled Bi-6X-Tel probe, and 6his-Trf1 (150 ng), 6his-Tin2 (60 ng), GST (100 ng), GST-Tin2–13 (100 ng) and/or 100 fold excess unlabeled [TTAGGG]_7, followed by incubation with streptavidin-agarose beads. The beads were collected, and components released and analyzed by PAGE. Signals were quantified using a phosphorimager and ImageQuant. Reaction mixtures were analyzed by EMSA.
Under these optimized conditions, Trf1 alone formed a small amount of TT-AAX which was greatly stimulated by Tin2. Also under these conditions, Trf1 alone formed two minor complexes that are likely due to two (TT) and three (TT*) Trf1 homodimers loaded onto the probe (Bianchi et al., 1997). The Tin2–13 mutant supershifted all three TT complexes, as expected from its ability to bind Tfr1.

[9] = molecular target: T3, Trf1 + Tin2 complex; assay: pulldown; probe pairing (6X-Tel/labeled Bi-6X-Tel) over Trf1 alone; 4-5 fold with unlabeled Bi-6X-Tel; abolished by excess unlabeled [TTAGGG]7; details: tags: 6his on both, baculovirus/Sf9; chain copies: 2 Trf1 + 2 Tin2 in TT-AA (stated as likely); label: 32P (6X-Tel); 5' biotin (Bi-6X-Tel)
Method: The 178 bp probe (6X-Tel) and the 126 bp probe (Bi-6X-Tel) were used either labeled or unlabeled. The probes were mixed together, incubated with purified 6his-proteins under optimized conditions, and Bi-6X-Tel probes were collected on streptavidin-agarose beads, as described below. […] Released labeled probes were identified by PAGE.
as §3
In the absence of protein or presence of Tin 2 alone, virtually no 6X-Tel probe, and very little labeled Bi-6X-Tel was released. […] Trf1 alone increased the amount of both 6X-Tel and labeled Bi-6X-Tel that were released. […]

B1: GST-Tin2-15 (N-terminal fragment aa 1-196 of Tin2, fused to GST) (other)
chain: MATPLVAGPAALRFAAAASWQVVRGRCVEHFPRVLEFLRSLRAVAPGLVRYRHHERLCMGLKAKVVVELILQGRPWAQVLKALNHHFPESGPIVRDPKATKQDLRKILEAQETFYQQVKQLSEAPVDLASKLQELEQEYGEPFLAAMEKLLFEYLCQLEKALPTPQAQQLQDVLSWMQPGVSITSSLAWRQYGVDM
notes: not shown: glutathione-S-transferase (GST) encoded by vector pGex4X-1 (Pharmacia)
B1: no binding [1].

B2: GST-Tin2 (wild-type Tin2 with glutathione-S-transferase linked to the N-terminus) (other)
chain: MATPLVAGPAALRFAAAASWQVVRGRCVEHFPRVLEFLRSLRAVAPGLVRYRHHERLCMGLKAKVVVELILQGRPWAQVLKALNHHFPESGPIVRDPKATKQDLRKILEAQETFYQQVKQLSEAPVDLASKLQELEQEYGEPFLAAMEKLLFEYLCQLEKALPTPQAQQLQDVLSWMQPGVSITSSLAWRQYGVDMGWLLPECSVTDSVNLAEPMEQNPPQQQRLALHNPLPKAKPGTHLPQGPSSRTHPEPLAGRHFNLAPLGRRRVQSQWASTRGGHKERPTVMLFPFRNLGSPTQVISNPESKEEHAIYTADLAMGTRAPSNGKYKGPYQTLGGRALKENPVDLPATEQKE
notes: also called Wild-type GST-Tin2; WT GST-Tin2; not shown: glutathione-S-transferase (GST) encoded by vector pGex4X-1 (Pharmacia), linked to the N-terminus; linker residues not gi
B2: no binding [2]; binds [1].

B3: no binding [3]; binds [4].

B4: GST-Tin2-14 (Tin2 with C-terminal deletion of aa 276-354, fused to GST) (other)
chain: MATPLVAGPAALRFAAAASWQVVRGRCVEHFPRVLEFLRSLRAVAPGLVRYRHHERLCMGLKAKVVVELILQGRPWAQVLKALNHHFPESGPIVRDPKATKQDLRKILEAQETFYQQVKQLSEAPVDLASKLQELEQEYGEPFLAAMEKLLFEYLCQLEKALPTPQAQQLQDVLSWMQPGVSITSSLAWRQYGVDMGWLLPECSVTDSVNLAEPMEQNPPQQQRLALHNPLPKAKPGTHLPQGPSSRTHPEPLAGRHFNLAPLGRRRVQSQWAST
notes: not shown: GST carrier at the N end (vector pGex4X-1, Pharmacia) and its vector linker
B4: binds [1].

B5: [TTAGGG]13 double-stranded telomeric probe (dsDNA)
DNA 1: TTAGGGTTAGGGTTAGGGTTAGGGTTAGGGTTAGGGTTAGGGTTAGGGTTAGGGTTAGGGTTAGGGTTAGGGTTAGGG
DNA 2: CCCTAACCCTAACCCTAACCCTAACCCTAACCCTAACCCTAACCCTAACCCTAACCCTAACCCTAACCCTAACCCTAA
B5: binds [5]; binds [6]; binds [7].

B6: [TTAGGG]6 probes with flanks (6X-Tel 178 bp, Bi-6X-Tel 126 bp) (dsDNA)
DNA 1: TTAGGGTTAGGGTTAGGGTTAGGGTTAGGGTTAGGG
DNA 2: CCCTAACCCTAACCCTAACCCTAACCCTAACCCTAA
B6: binds [8]; binds [9].

B7: GST-Tin2-12 (Tin2 with N-terminal deletion of aa 1-120, fused to GST) (other)
chain: LSEAPVDLASKLQELEQEYGEPFLAAMEKLLFEYLCQLEKALPTPQAQQLQDVLSWMQPGVSITSSLAWRQYGVDMGWLLPECSVTDSVNLAEPMEQNPPQQQRLALHNPLPKAKPGTHLPQGPSSRTHPEPLAGRHFNLAPLGRRRVQSQWASTRGGHKERPTVMLFPFRNLGSPTQVISNPESKEEHAIYTADLAMGTRAPSNGKYKGPYQTLGGRALKENPVDLPATEQKE
notes: as for B4
B7: binds [1].
